Results taken from the supplement of paper PMC9112550, “Optimization of the antimicrobial peptide Bac7 by deep mutational scanning” (BMC Biology, 2022).

Test system: Escherichia coli TOP10
Assay: shrunken log2 fold change of peptide-encoding DNA abundance (4.5 h post-induction vs induction); higher = less antimicrobial activity (less host growth inhibition)
Conditions: time post-induction: 4.5 h; library: site-saturation at positions 5, 18, 19, 20
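Note: peptides expressed intracellularly from a pBAD plasmid library in pooled LB shake-flask culture, induced with 0.3% L-arabinose, DNA abundance read by NGS, three biological replicates, DESeq2 with apeglm shrinkage.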

Question: Which “shrunken log2 fold change” value does the source give for RRIRRRPPRLPRPRPRPEGDPRP here?
Answer: The value was 0.956.

Question: Which “shrunken log2 fold change” value does the source give for RRIRRRPPRLPRPRPRPEIFPRP here?
Answer: Its value is 0.215.

Question: How did the “shrunken log2 fold change” value turn out when RRIRRRPPRLPRPRPRPEKKPRP was run?
Answer: Its value is 0.0396.

Question: How did the “shrunken log2 fold change” value turn out when RRIRRRPPRLPRPRPRPEKLPRP was run?
Answer: Its value is 0.128.

Question: RRIRRRPPRLPRPRPRPEMPPRP was tested. Which “shrunken log2 fold change” value did it give?
Answer: Its value is 0.207.

Question: RRIRRRPPRLPRPRPRPENDPRP was tested. Which “shrunken log2 fold change” value did it give?
Answer: The value was 0.785.

Question: With RRIRRRPPRLPRPRPRPENMPRP as the sequence, how does the “shrunken log2 fold change” value read?
Answer: Its value is 0.0592.

Question: RRIRRRPPRLPRPRPRPESFPRP was tested. Which “shrunken log2 fold change” value did it give?
Answer: Its value is 0.0965.

Question: RRIRRRPPRLPRPRPRPESSPRP was tested. Which “shrunken log2 fold change” value did it give?
Answer: The value was 0.53.

Question: How did the “shrunken log2 fold change” value turn out when RRIRRRPPRLPRPRPRPEVFPRP was run?
Answer: Its value is 0.0496.

Question: How did the “shrunken log2 fold change” value turn out when RRIRRRPPRLPRPRPRPEWDPRP was run?
Answer: Its value is 0.426.

Question: With RRIRRRPPRLPRPRPRPEWPPRP as the sequence, how does the “shrunken log2 fold change” value read?
Answer: Its value is 0.387.

Question: For RRIRRRPPRLPRPRPRPEYCPRP, which “shrunken log2 fold change” value is on record?
Answer: Its value is 0.0246.

Question: How did the “shrunken log2 fold change” value turn out when RRIRRRPPRLPRPRPRPEYGPRP was run?
Answer: The value was -0.0277.

Question: RRIRRRPPRLPRPRPRPFAMPRP was tested. Which “shrunken log2 fold change” value did it give?
Answer: The value was 0.0854.

Question: For RRIRRRPPRLPRPRPRPFCKPRP, which “shrunken log2 fold change” value is on record?
Answer: The value was -0.188.

Question: With RRIRRRPPRLPRPRPRPFCWPRP as the sequence, how does the “shrunken log2 fold change” value read?
Answer: Its value is 0.45.

Question: Which “shrunken log2 fold change” value does the source give for RRIRRRPPRLPRPRPRPFDLPRP here?
Answer: Its value is 0.0765.

Question: For RRIRRRPPRLPRPRPRPFDVPRP, which “shrunken log2 fold change” value is on record?
Answer: The value was -0.0126.

Question: Which “shrunken log2 fold change” value does the source give for RRIRRRPPRLPRPRPRPFFDPRP here?
Answer: Its value is 0.296.

Question: Which “shrunken log2 fold change” value does the source give for RRIRRRPPRLPRPRPRPFFPPRP here?
Answer: The value was 0.263.

Question: For RRIRRRPPRLPRPRPRPFGNPRP, which “shrunken log2 fold change” value is on record?
Answer: Its value is -0.18.

Question: How did the “shrunken log2 fold change” value turn out when RRIRRRPPRLPRPRPRPFGSPRP was run?
Answer: Its value is -0.0013.

Question: With RRIRRRPPRLPRPRPRPFHNPRP as the sequence, how does the “shrunken log2 fold change” value read?
Answer: Its value is 0.00548.

Question: With RRIRRRPPRLPRPRPRPFHVPRP as the sequence, how does the “shrunken log2 fold change” value read?
Answer: The value was -0.00804.

Question: Which “shrunken log2 fold change” value does the source give for RRIRRRPPRLPRPRPRPFIQPRP here?
Answer: Its value is -0.0404.

Question: With RRIRRRPPRLPRPRPRPFKFPRP as the sequence, how does the “shrunken log2 fold change” value read?
Answer: The value was -0.0354.

Question: Which “shrunken log2 fold change” value does the source give for RRIRRRPPRLPRPRPRPFKGPRP here?
Answer: Its value is 0.0185.

Question: How did the “shrunken log2 fold change” value turn out when RRIRRRPPRLPRPRPRPFMPPRP was run?
Answer: The value was -0.00307.

Question: RRIRRRPPRLPRPRPRPFMRPRP was tested. Which “shrunken log2 fold change” value did it give?
Answer: The value was 0.341.

Question: RRIRRRPPRLPRPRPRPFMYPRP was tested. Which “shrunken log2 fold change” value did it give?
Answer: The value was -0.174.

Question: How did the “shrunken log2 fold change” value turn out when RRIRRRPPRLPRPRPRPFPFPRP was run?
Answer: Its value is -0.0334.

Question: Which “shrunken log2 fold change” value does the source give for RRIRRRPPRLPRPRPRPFPKPRP here?
Answer: Its value is 0.0876.

Question: RRIRRRPPRLPRPRPRPFPLPRP was tested. Which “shrunken log2 fold change” value did it give?
Answer: The value was 0.49.

Question: How did the “shrunken log2 fold change” value turn out when RRIRRRPPRLPRPRPRPFQVPRP was run?
Answer: The value was -0.0462.

Question: With RRIRRRPPRLPRPRPRPFSVPRP as the sequence, how does the “shrunken log2 fold change” value read?
Answer: The value was 0.0458.

Question: Which “shrunken log2 fold change” value does the source give for RRIRRRPPRLPRPRPRPFTYPRP here?
Answer: Its value is -0.22.

Question: With RRIRRRPPRLPRPRPRPFYDPRP as the sequence, how does the “shrunken log2 fold change” value read?
Answer: The value was -0.193.

Question: For RRIRRRPPRLPRPRPRPFYFPRP, which “shrunken log2 fold change” value is on record?
Answer: The value was 0.116.

Question: For RRIRRRPPRLPRPRPRPGCDPRP, which “shrunken log2 fold change” value is on record?
Answer: Its value is 0.456.

Question: For RRIRRRPPRLPRPRPRPGDPPRP, which “shrunken log2 fold change” value is on record?
Answer: The value was 0.593.

Question: With RRIRRRPPRLPRPRPRPGESPRP as the sequence, how does the “shrunken log2 fold change” value read?
Answer: Its value is 0.0142.

Question: For RRIRRRPPRLPRPRPRPGFGPRP, which “shrunken log2 fold change” value is on record?
Answer: Its value is 0.497.

Question: For RRIRRRPPRLPRPRPRPGHMPRP, which “shrunken log2 fold change” value is on record?
Answer: Its value is 0.101.

Question: RRIRRRPPRLPRPRPRPGIVPRP was tested. Which “shrunken log2 fold change” value did it give?
Answer: Its value is -0.0478.

Question: For RRIRRRPPRLPRPRPRPGIYPRP, which “shrunken log2 fold change” value is on record?
Answer: Its value is 0.0548.

Question: How did the “shrunken log2 fold change” value turn out when RRIRRRPPRLPRPRPRPGKKPRP was run?
Answer: Its value is 0.0542.

Question: For RRIRRRPPRLPRPRPRPGLRPRP, which “shrunken log2 fold change” value is on record?
Answer: The value was 0.338.

Question: RRIRRRPPRLPRPRPRPGMHPRP was tested. Which “shrunken log2 fold change” value did it give?
Answer: Its value is 0.217.

Question: For RRIRRRPPRLPRPRPRPGMTPRP, which “shrunken log2 fold change” value is on record?
Answer: The value was 0.129.

Question: RRIRRRPPRLPRPRPRPGPDPRP was tested. Which “shrunken log2 fold change” value did it give?
Answer: The value was 0.518.

Question: For RRIRRRPPRLPRPRPRPGRRPRP, which “shrunken log2 fold change” value is on record?
Answer: Its value is 0.456.

Question: RRIRRRPPRLPRPRPRPGSHPRP was tested. Which “shrunken log2 fold change” value did it give?
Answer: Its value is -0.154.

Question: Which “shrunken log2 fold change” value does the source give for RRIRRRPPRLPRPRPRPGSIPRP here?
Answer: Its value is -0.0979.

Question: RRIRRRPPRLPRPRPRPGTIPRP was tested. Which “shrunken log2 fold change” value did it give?
Answer: Its value is -0.502.

Question: For RRIRRRPPRLPRPRPRPGTKPRP, which “shrunken log2 fold change” value is on record?
Answer: Its value is 0.0056.

Question: With RRIRRRPPRLPRPRPRPGTMPRP as the sequence, how does the “shrunken log2 fold change” value read?
Answer: The value was 0.186.

Question: RRIRRRPPRLPRPRPRPGVNPRP was tested. Which “shrunken log2 fold change” value did it give?
Answer: Its value is -0.271.

Question: RRIRRRPPRLPRPRPRPGWYPRP was tested. Which “shrunken log2 fold change” value did it give?
Answer: The value was 0.205.

Question: Which “shrunken log2 fold change” value does the source give for RRIRRRPPRLPRPRPRPGYHPRP here?
Answer: Its value is 0.456.

Question: For RRIRRRPPRLPRPRPRPGYNPRP, which “shrunken log2 fold change” value is on record?
Answer: The value was -0.27.

Question: Which “shrunken log2 fold change” value does the source give for RRIRRRPPRLPRPRPRPGYVPRP here?
Answer: Its value is 0.183.

Question: RRIRRRPPRLPRPRPRPHCGPRP was tested. Which “shrunken log2 fold change” value did it give?
Answer: The value was -0.0836.

Question: How did the “shrunken log2 fold change” value turn out when RRIRRRPPRLPRPRPRPHDKPRP was run?
Answer: Its value is 0.302.

Question: For RRIRRRPPRLPRPRPRPHIMPRP, which “shrunken log2 fold change” value is on record?
Answer: The value was -0.435.

Question: How did the “shrunken log2 fold change” value turn out when RRIRRRPPRLPRPRPRPHKGPRP was run?
Answer: Its value is 0.221.

Question: How did the “shrunken log2 fold change” value turn out when RRIRRRPPRLPRPRPRPHKTPRP was run?
Answer: The value was 0.107.

Question: For RRIRRRPPRLPRPRPRPHLDPRP, which “shrunken log2 fold change” value is on record?
Answer: Its value is 0.176.

Question: RRIRRRPPRLPRPRPRPHMFPRP was tested. Which “shrunken log2 fold change” value did it give?
Answer: The value was 0.119.

Question: With RRIRRRPPRLPRPRPRPHNHPRP as the sequence, how does the “shrunken log2 fold change” value read?
Answer: Its value is -0.237.

Question: For RRIRRRPPRLPRPRPRPHPCPRP, which “shrunken log2 fold change” value is on record?
Answer: Its value is 0.0156.

Question: With RRIRRRPPRLPRPRPRPHQIPRP as the sequence, how does the “shrunken log2 fold change” value read?
Answer: The value was 0.0553.

Question: Which “shrunken log2 fold change” value does the source give for RRIRRRPPRLPRPRPRPHQPPRP here?
Answer: Its value is 0.557.

Question: RRIRRRPPRLPRPRPRPHRLPRP was tested. Which “shrunken log2 fold change” value did it give?
Answer: Its value is 0.0507.

Question: For RRIRRRPPRLPRPRPRPHRPPRP, which “shrunken log2 fold change” value is on record?
Answer: Its value is 0.203.
